Consider ten molecules from publication PMC10397247.

Assay [1] has as its target T1, P4SN.
T1 chain: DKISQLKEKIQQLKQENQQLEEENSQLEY
Nature of the assay: two-hybrid library CCmax.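 Also: natural log of median RNA to DNA barcode read ratio; higher means stronger binding.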

Assay [2] addresses T1, P4SN. Nature of the assay: two-hybrid library CCNG1.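 Also: natural log of median RNA to DNA barcode read ratio; higher means stronger binding.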 Particulars: mean of both orientations.
For another assay, the target named is T2, P9mS.
T2 chain: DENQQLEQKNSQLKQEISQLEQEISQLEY
Nature of the assay: two-hybrid library CCNG1.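 Also: natural log of median RNA to DNA barcode read ratio; higher means stronger binding.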

The next assay deals with T3, P4mS.
T3 chain: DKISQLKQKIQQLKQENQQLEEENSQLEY
Nature of the assay: two-hybrid library CCNG1.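 Also: natural log of median RNA to DNA barcode read ratio; higher means stronger binding.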

The next assay has as its target T4, P12mS.
T4 chain: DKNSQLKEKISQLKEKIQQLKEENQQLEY
Nature of the assay: two-hybrid library CCNG1.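 Also: natural log of median RNA to DNA barcode read ratio; higher means stronger binding.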

Another assay deals with T5, P7mS.
T5 chain: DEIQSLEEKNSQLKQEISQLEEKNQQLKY
Nature of the assay: two-hybrid library CCNG1.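 Also: natural log of median RNA to DNA barcode read ratio; higher means stronger binding.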

Another assay addresses T6, P6mS.
T6 chain: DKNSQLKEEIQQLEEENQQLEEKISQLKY
Nature of the assay: two-hybrid library CCNG1.

A further assay has as its target T7, P5mS.
T7 chain: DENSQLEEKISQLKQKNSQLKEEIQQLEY
Nature of the assay: two-hybrid library CCNG1.

The target in a further assay is T8, P3mS.
T8 chain: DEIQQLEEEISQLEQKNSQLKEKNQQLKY
Nature of the assay: two-hybrid library CCNG1.

The next assay has as its target T9, P10mS.
T9 chain: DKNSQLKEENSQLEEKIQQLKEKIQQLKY
Nature of the assay: two-hybrid library CCNG1.

The target in the next assay is T10, P11mS.
T10 chain: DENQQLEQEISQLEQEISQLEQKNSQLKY
Nature of the assay: two-hybrid library CCNG1.

The next assay addresses T11, P8mS.
T11 chain: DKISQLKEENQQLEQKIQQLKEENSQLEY
Nature of the assay: two-hybrid library CCNG1.

The target of the next assay is T12, Core_NNNN-es_KKKE.
T12 chain: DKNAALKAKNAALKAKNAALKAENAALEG
Nature of the assay: two-hybrid library CCmax. Particulars: mean of both orientations.

The target of the next assay is T13, Core_NNIN-es_KEKK.
T13 chain: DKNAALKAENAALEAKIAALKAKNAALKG
Nature of the assay: two-hybrid library CCmax. Particulars: mean of both orientations.

The target in a further assay is T14, O3-bH.
T14 chain: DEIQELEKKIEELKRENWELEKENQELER
Nature of the assay: two-hybrid library CCNG1.

For a further assay, the target named is T15, O4-bH.
T15 chain: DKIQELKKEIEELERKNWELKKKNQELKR
Nature of the assay: two-hybrid library CCNG1.

In a further assay the target is T16, O12-bH.
T16 chain: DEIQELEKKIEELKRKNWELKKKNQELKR
Nature of the assay: two-hybrid library CCNG1.

A further assay concerns the target T17, O10-bH.
T17 chain: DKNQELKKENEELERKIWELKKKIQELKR
Nature of the assay: two-hybrid library CCNG1.

A further assay concerns the target T18, O14-bH.
T18 chain: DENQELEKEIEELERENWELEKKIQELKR
Nature of the assay: two-hybrid library CCNG1.

The target of the next assay is T19, O2-bH.
T19 chain: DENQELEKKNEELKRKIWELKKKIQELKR
Nature of the assay: two-hybrid library CCNG1.

A further assay addresses T20, O8-bH.
T20 chain: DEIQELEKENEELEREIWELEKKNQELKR
Nature of the assay: two-hybrid library CCNG1.

In another assay the target is T21, O5-bH.
T21 chain: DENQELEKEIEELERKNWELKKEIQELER
Nature of the assay: two-hybrid library CCNG1.

A further assay deals with T22, O16-bH.
T22 chain: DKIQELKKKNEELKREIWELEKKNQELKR
Nature of the assay: two-hybrid library CCNG1.

The target of another assay is T23, O13-bH.
T23 chain: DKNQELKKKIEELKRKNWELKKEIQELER
Nature of the assay: two-hybrid library CCNG1.

For a further assay, the target named is T24, O9-bH.
T24 chain: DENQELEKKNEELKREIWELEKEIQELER
Nature of the assay: two-hybrid library CCNG1.

The next assay deals with T25, O6-bH.
T25 chain: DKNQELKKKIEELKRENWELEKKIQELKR
Nature of the assay: two-hybrid library CCNG1.

Another assay concerns the target T26, O15-bH.
T26 chain: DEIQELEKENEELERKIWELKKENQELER
Nature of the assay: two-hybrid library CCNG1.

The target of the next assay is T27, O11-bH.
T27 chain: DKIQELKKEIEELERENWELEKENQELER
Nature of the assay: two-hybrid library CCNG1.

Another assay deals with T28, O1-bH.
T28 chain: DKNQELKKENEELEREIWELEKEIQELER
Nature of the assay: two-hybrid library CCNG1.

Another assay addresses T29, O7-bH.
T29 chain: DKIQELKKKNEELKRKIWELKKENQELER
Nature of the assay: two-hybrid library CCNG1.

For the next assay, the target named is T30, Core_INNN-es_KKEE.
T30 chain: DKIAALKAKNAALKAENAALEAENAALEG
Nature of the assay: two-hybrid library CCmax. Particulars: mean of both orientations.

A further assay has as its target T31, Core_IINI-es_KEEE.
T31 chain: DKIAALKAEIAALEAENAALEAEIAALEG
Nature of the assay: two-hybrid library CCmax. To be noted: mean of both orientations.

A further assay has as its target T32, Core_NINN-es_KEKE.
T32 chain: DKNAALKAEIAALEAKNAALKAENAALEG
Nature of the assay: two-hybrid library CCmax. To be noted: mean of both orientations.

A further assay deals with T33, 4H3070-bA.
T33 chain: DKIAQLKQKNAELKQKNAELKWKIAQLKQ
Nature of the assay: two-hybrid library CCNG1.

The target of the next assay is T34, 4H496-bA.
T34 chain: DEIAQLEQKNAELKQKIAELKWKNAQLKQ
Nature of the assay: two-hybrid library CCNG1.

The next assay addresses T35, 4H2691-bA.
T35 chain: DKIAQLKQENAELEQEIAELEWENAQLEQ
Nature of the assay: two-hybrid library CCNG1.

The next assay addresses T36, 4H3632-bA.
T36 chain: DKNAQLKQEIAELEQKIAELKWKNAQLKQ
Nature of the assay: two-hybrid library CCNG1.

For another assay, the target named is T37, 4H145-bA.
T37 chain: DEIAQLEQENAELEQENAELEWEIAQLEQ
Nature of the assay: two-hybrid library CCNG1.

A further assay has as its target T38, 4H342-bA.
T38 chain: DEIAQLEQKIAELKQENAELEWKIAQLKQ
Nature of the assay: two-hybrid library CCNG1.

For another assay, the target named is T39, 4H1347-bA.
T39 chain: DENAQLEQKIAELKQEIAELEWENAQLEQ
Nature of the assay: two-hybrid library CCNG1.

Another assay concerns the target T40, 4H2619-bA.
T40 chain: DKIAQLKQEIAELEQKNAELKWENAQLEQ
Nature of the assay: two-hybrid library CCNG1.

For another assay, the target named is T41, Core_NNNI-es_KEKE.
T41 chain: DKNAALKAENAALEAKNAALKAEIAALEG
Nature of the assay: two-hybrid library CCmax. Particulars: mean of both orientations.

As for DEIQQLEEEISQLEQKNSELKEKNQELKY [P3SN], the interaction score in the assay with P4SN [1] was -0.993; with P4SN [2] it was 1.25.

In the case of DKNSQLKEENSQLEEKIQQLKEKIQQLKY [P10mS], the interaction score in the assay with P9mS was -0.677; with P4mS, 0.178; in the assay with P12mS it was 0.126; in the assay with P7mS, 0.649; with P6mS, -2.03; in the assay with P5mS, -1.28. Further, the interaction score in the assay with P3mS is -1.79; with P10mS, -0.344; with P11mS, 0.347; with P8mS, -0.478.

With DENAALEAENAALEAENAALEAKNAALKG [Core_NNNN-es_EEEK], the interaction score with Core_NNNN-es_KKKE is 0.962.

In the assay with Core_NNIN-es_KEKK, DENAALEAKNAALKAEIAALEAENAALEG [Core_NNIN-es_EKEE] had an interaction score of 1.32.

For DKNQELKKENEELEREIWELEKEIQELER [O1-bH], the interaction score was -1.49 with O3-bH; -1.15 in the assay with O4-bH; -0.434 with O12-bH; 0.782 with O10-bH; -0.549 with O14-bH; -0.214 in the assay with O2-bH. For the same molecule, the interaction score is -2.35 in the assay with O8-bH; -1.92 with O5-bH; -0.655 with O16-bH; 0.467 with O13-bH; -2.31 in the assay with O9-bH; -0.62 with O6-bH. Further, the interaction score was -0.695 with O15-bH, -0.522 with O11-bH, -0.259 with O1-bH and -0.877 in the assay with O7-bH.

As to DEIAALEAENAALEAKNAALKAKNAALKG [Core_INNN-es_EEKK], the interaction score in the assay with Core_INNN-es_KKEE is 1.67.

In the assay with Core_IINI-es_KEEE, DEIAALEAKIAALKAKNAALKAKIAALKG [Core_IINI-es_EKKK] yielded an interaction score of 2.08.

For the molecule DENAALEAKIAALKAENAALEAKNAALKG [Core_NINN-es_EKEK], the interaction score with Core_NINN-es_KEKE was 1.51.

Regarding DENAQLEQKIAELKQEIAELEWENAQLEQ [4H1347-bA], the interaction score with 4H3070-bA was -0.786; with 4H496-bA, -0.596; with 4H2691-bA, -0.56; with 4H3632-bA it was 1.92; with 4H145-bA, -0.0112; with 4H342-bA, -0.567. Also, the interaction score with 4H1347-bA is -0.84; with 4H2619-bA, -0.421.

Consider DENAALEAKNAALKAENAALEAKIAALKG [Core_NNNI-es_EKEK], for which, in the assay with Core_NNNI-es_KEKE, the interaction score amounted to 2.1.
